Measured values reported in patent US20180057581A1 (MorphoSys, published 2018).
Substitutions are numbered along the chain they refer to. Names and notes keep the numbering of the source.

T1: human M-CSF (human, UniProt P09603 33-255, limits assumed)
T1 construct: also called M-CSF (human); CSF-1
T1 sequence: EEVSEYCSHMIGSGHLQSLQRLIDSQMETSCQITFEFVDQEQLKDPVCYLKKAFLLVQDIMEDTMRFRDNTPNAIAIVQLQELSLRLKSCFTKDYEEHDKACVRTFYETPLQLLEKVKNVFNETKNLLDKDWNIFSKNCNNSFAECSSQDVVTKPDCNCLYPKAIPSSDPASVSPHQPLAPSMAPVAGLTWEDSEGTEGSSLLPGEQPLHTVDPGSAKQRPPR

T2: Recombinant cynomolgus monkey sgM-CSF (cynomolgus (Macaca fascicularis), UniProt P09603 33-255 (human entry), limits assumed)
T2 construct: used also where only 'cynomolgus M-CSF' is printed (ELISA result, SET); also called cynomolgus sgM-CSF; cyno sgM-CSF
T2 chain: T1 sequence with V186M, E192D

T3: human cell-surface M-CSF on stably transfected CHO cells (human, UniProt P09603 33-554)
T3 construct: also called csM-CSF
T3 sequence: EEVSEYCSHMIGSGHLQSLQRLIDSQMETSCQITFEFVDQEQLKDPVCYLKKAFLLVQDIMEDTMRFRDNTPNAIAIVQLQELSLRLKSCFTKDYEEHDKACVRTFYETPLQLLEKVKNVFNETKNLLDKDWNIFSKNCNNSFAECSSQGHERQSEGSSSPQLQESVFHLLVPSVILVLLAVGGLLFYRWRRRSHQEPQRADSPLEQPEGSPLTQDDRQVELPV

T4: Recombinant human sgM-CSF (human, UniProt P09603 33-255)
T4 sequence: T1 sequence

B1: 8.10.3F, Fab (Fab, V domains shown)
VH: EVQLVESGGGLVQPGGSLRLSCAASGFTFSSFSMTWVRQAPGKGLEWVSYISSRSSTISYADSVKGRFTISRDNAKNSLYLQMNSLRDEDTAVYYCARDPLLAGATFFDYWGQGTLVTVSS
VL: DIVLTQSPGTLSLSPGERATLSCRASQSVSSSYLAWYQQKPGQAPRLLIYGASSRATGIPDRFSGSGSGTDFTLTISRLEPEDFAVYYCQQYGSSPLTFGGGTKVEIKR
notes: Prior art antibody; also called 8.10.F3
B2: Romaine, Fab (Fab, V domains shown)
VH: EVQLVESGGGLVKPGGSLRLSCAASGFTFSIYAMSWVRQAPGKGLEWVGRIKSNADGGTTEYAAPVKGRFTISRDDSKNTLYLQMNSLKTEDTAVYYCARMRYYSDLYFDPWGQGTLVTVSS
VL: DIELTQPPSVSVSPGQTASITCSGDAIGSKYVHWYQQKPGQAPVLVISKDNKRPSGIPERFSGSNSGNTATLTISGTQAEDEADYYCQTATVSSYWWVFGGGTKLTVLG
B3: Satine, Fab (Fab, V domains shown)
VH: B2 VH
VL: SYELTQPPSVSVSPGQTASITCSGDKLGQKYVSWYQQKPGQSPVLVISQDRKRPSGIPERFSGSNSGNTATLTISGTQAEDEADYYCQTWTHLQWVFGGGTKLTVLG
B4: Madeleine, Fab (Fab, V domains shown)
VH: QVQLQQSGPGLVKPSQTLSLTCAISGDSVSSNSAAWNWIRQSPSRGLEWLGRTYYRSKWKKEYAQSVKSRITINPDTSKNQFSLQLNSVTPEDTAVYYCARDRYYYSAFDYWGQGTLVTVSS
VL: QSALTQPASVSGSPGQSITISCTGTSSDVGGYNSVSWYQQHPGKAPKLMIYAVSNRPSGVSNRFSGSKSGNTASLTISGLQAEDEADYYCASYDERFTRVFGGGTKLTVLG
B5: Camille, Fab (Fab, V domains shown)
VH: B4 VH with D27E, S31T, N32S, K61H, Q65V
VL: B4 VL with M49L
B6: Blanche, Fab (Fab, V domains shown)
VH: B4 VH with K61H, Q65M
VL: B4 VL with Q1D, S2I
B7: Caline, Fab (Fab, V domains shown)
VH: B4 VH with K61H, Q65M
VL: B4 VL
B8: Meriem, Fab (Fab, V domains shown)
VH: B4 VH with S31T, N32S
VL: B4 VL with M49I
B9: Laurine, Fab (Fab, V domains shown)
VH: B4 VH
VL: B4 VL with Q1D, S2I
B10: Maelle, Fab (Fab, V domains shown)
VH: B4 VH with D27E, S31T, N32S
VL: B4 VL with M49I
B11: HeRX1-10G1, Fab (Fab, V domains shown)
VH: QVQLQESGPGLVKPSQTLSLTCTVSDYSITSDYAWNWIRQFPGKGLEWMGYISYSGSTSYNPSLKSRITISRDTSKNQFSLQLNSVTAADTAVYYCASFDYAHAMDYWGQGTTVTVSS
VL: DIVLTQSPAFLSVTPGEKVTFTCQASQSIGTSIHWYQQKTDQAPKLLIKYASESISGIPSRFSGSGSGTDFTLTISSVEAEDAADYYCQQINSWPTTFGGGTKLEIKR
notes: Prior art antibody
B12: Romaine (format not stated) (antibody, V domains shown)
VH: B2 VH
VL: B2 VL
B13: Satine (format not stated) (antibody, V domains shown)
VH: B2 VH
VL: B3 VL
B14: Servane (format not stated) (antibody, V domains shown)
VH: B2 VH with I31T, M34I, R50F, N54K, A55H, D56N, G57S
VL: B3 VL
B15: Madeleine (format not stated) (antibody, V domains shown)
VH: B4 VH
VL: B4 VL
B16: Blanche (format not stated) (antibody, V domains shown)
VH: B4 VH with K61H, Q65M
VL: B4 VL with Q1D, S2I
B17: Caline (format not stated) (antibody, V domains shown)
VH: B4 VH with K61H, Q65M
VL: B4 VL
B18: Meriem (format not stated) (antibody, V domains shown)
VH: B4 VH with S31T, N32S
VL: B4 VL with M49I
B19: Laurine (format not stated) (antibody, V domains shown)
VH: B4 VH
VL: B4 VL with Q1D, S2I
B20: Maelle (format not stated) (antibody, V domains shown)
VH: B4 VH with D27E, S31T, N32S
VL: B4 VL with M49I
B21: Celine (format not stated) (antibody, V domains shown)
VH: B4 VH with S31T, N32S, K61H, Q65V
VL: B4 VL with M49I
B22: 8.10.3F, IgG2 (antibody, V domains shown)
VH: B1 VH
VL: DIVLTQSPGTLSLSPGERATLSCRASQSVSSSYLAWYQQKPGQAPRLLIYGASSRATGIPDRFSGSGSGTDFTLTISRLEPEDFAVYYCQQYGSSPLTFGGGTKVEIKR
notes: tested as IgG2; also called 8.10.F3
B23: 8.10.3F, IgG1_D265A (antibody, V domains shown)
VH: B1 VH
VL: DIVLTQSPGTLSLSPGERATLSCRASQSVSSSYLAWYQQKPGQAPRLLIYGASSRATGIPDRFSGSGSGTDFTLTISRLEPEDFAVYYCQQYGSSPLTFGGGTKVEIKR
notes: Prior art antibody; tested as IgG1 with D265A in the Fc (EU index); also called 8.10.F3

These binders were tested against T1, human M-CSF (assay: soluble equilibrium titration (SET), Fab, monovalent).
Method: (§1) The monovalent affinity of the antibodies of the present disclosure was determined by soluble equilibrium titration (Haenel et al. (2005) Anal Biochem 339, 182-4).

Row | Kd [nM] | Binder
1 | 0.038 | B1
2 | 0.013 | B2
3 | < 0.002 | B3
4 | 0.028 | B4
5 | 0.018 | B5
6 | 0.096 | B6
7 | 0.014 | B7
8 | 0.011 | B8
9 | 0.096 | B9
10 | 0.013 | B10
11 | > 1 | B11

Biological target: T2, Recombinant cynomolgus monkey sgM-CSF
Experiment: as above
Method: as §1

Row | Kd [nM] | Binder
12 | 0.007 | B2
13 | 0.03 | B4
14 | 0.025 | B5
15 | 0.13 | B6
16 | 0.016 | B7
17 | 0.013 | B8
18 | 0.15 | B9
19 | 0.027 | B10

These binders were tested against T1, human M-CSF (assay: ELISA).
Method: (§2) BSA was used as a negative control substrate.
(§3) After blocking of plates with 5% skim milk powder in PBS, Fab-containing E. coli lysates, IgG-containing cell culture supernatants or purified IgG or Fab proteins were added. Binding of Fabs or IgGs was detected by F(ab)₂ specific goat anti-human IgG conjugated to alkaline phosphatase (Dianova Cat# 109-055-097; diluted 1:5000) using Attophos fluorescence substrate (Roche, #11681982001). Fluorescence emission at 535 nm was recorded with excitation at 430 nm.

Row | ELISA fluorescence units [units] | Binder
20 | > 35000 | B12
21 | > 35000 | B13
22 | > 35000 | B14
23 | > 35000 | B15
24 | > 35000 | B16
25 | > 35000 | B17
26 | > 35000 | B18
27 | > 35000 | B19
28 | > 35000 | B20
29 | > 35000 | B21

Biological target: T2, Recombinant cynomolgus monkey sgM-CSF
Experiment: ELISA
Method: as §2, §3

Row | ELISA fluorescence units [units] | Binder
30 | > 35000 | B12
31 | > 35000 | B13
32 | > 35000 | B14
33 | > 35000 | B15
34 | > 35000 | B16
35 | > 35000 | B17
36 | > 35000 | B18
37 | > 35000 | B19
38 | > 35000 | B20
39 | > 35000 | B21

The binders below were run against T3, human cell-surface M-CSF on stably … (assay: FACS, CHO cells stably transfected with M-CSF (n = 3)).

Row | EC50 [nM] | Binder
40 | 23.2 | B22
41 | 8.9 | B23

These binders were tested against T4, Recombinant human sgM-CSF (assay: cell-based or functional assay).

Row | IC50, inhibition of M-NFS-60 proliferation induced by recombinant human M-CSF (9.5 pM) [pM] | Binder
42 | 71.1 | B22
43 | 14.9 | B23

Biological target: T2, Recombinant cynomolgus monkey sgM-CSF
Experiment: cell-based or functional assay

Row | IC50, inhibition of M-NFS-60 proliferation induced by recombinant cynomolgus M-CSF (9.5 pM) [pM] | Binder
44 | 84.6 | B22
45 | 16.5 | B23

The binders below were run against T4, Recombinant human sgM-CSF (assay: MSD receptor binding inhibition: 12.5 pM human sgM-CSF preincubated with antibody, binding to coated human CSF1-R-Fc).
Method: (§4) Complexes were then transferred to 384 well MSD plates coated with 2 μg/ml of the corresponding receptor. Plates were then washed and incubated with the streptavidin/ECL conjugate for 2 h with shaking at room temperature. 35 μl MSD read buffer T with surfactant was then added per well and subsequently measured using MSD Sector Imager 6000.

Row | IC50 [nM] | Binder
46 | 0.0314 | B22
47 | 0.0192 | B23

Biological target: T2, Recombinant cynomolgus monkey sgM-CSF
Experiment: MSD receptor binding inhibition: 12.5 pM cynomolgus sgM-CSF preincubated with antibody, binding to coated human CSF1-R-Fc
Method: as §4

Row | IC50 [nM] | Binder
48 | 0.0207 | B22
49 | 0.0146 | B23
